Data on 40 molecules can be found in US20200339678A1 (RIGEL PHARMACEUTICALS, published 2020).

In test [1] the target is T1, His-tagged recombinant Human TIGIT (human, UniProt Q495A1 22-141).
T1 construct: also called VSIG9; VSTM3; not shown: His tag
T1 sequence (looked up): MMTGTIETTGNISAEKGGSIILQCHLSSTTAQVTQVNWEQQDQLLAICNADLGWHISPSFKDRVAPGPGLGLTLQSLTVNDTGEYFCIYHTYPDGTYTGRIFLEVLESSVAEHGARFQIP
Nature of the test: ELISA, coated His-tagged human TIGIT. As for the experimental part:
(§1) Binding affinities for antigen binding to anti-TIGIT monoclonal antibodies were determined by ELISA. […] Antibodies to be tested were diluted to 1 μM in PBS buffer containing 1% BSA and diluted 3-fold in a 10-point curve. […] Detection of the secondary antibody was determined using streptavidin-HRP and TMB reagent. All assays were performed at room temperature. Curve-fitting software was used to determine the EC₅₀ for each antibody.
(In general: In an ELISA, binding on a coated surface is turned into a signal by an enzyme label.)

Test [2] concerns the target T2, His-tagged recombinant Mouse TIGIT (mouse, UniProt P86176 29-148, limits assumed).
T2 construct: not shown: His tag
T2 sequence (looked up): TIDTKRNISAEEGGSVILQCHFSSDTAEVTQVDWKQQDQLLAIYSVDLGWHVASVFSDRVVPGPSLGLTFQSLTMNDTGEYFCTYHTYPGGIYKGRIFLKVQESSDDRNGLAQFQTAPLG
Nature of the test: ELISA, coated His-tagged mouse TIGIT. On the procedure:
as §1

Changes are numbered by the printed parent chain.

B1: Ab2 (Fab, V domains shown)
VH: EVQLLESGGGLVQPGGSLRLSCAASGFTFSSYGMNWVRQAPGKGLEWVAGINYSSGNKYYADSVKGRFTISRDNSKNTLYLQMNSLRAEDTAVYYCARGPYASTWLDYWGQGTLVTVSS
VL: not shown
notes: ARG set
One may read the EC50 as the concentration that produces a half-maximal response. Consider B1, for which, in test [1], the 50% effective concentration (EC50) came out at 15.7 nM.

B2: Ab4 (Fab, V domains shown)
VH: EVQLLESGGGLVQPGGSLRLSCAASGFTFDSYGMNWVRQAPGKGLEWVASIKYSSGYKYYADSVKGRFTISRDNSKNTLYLQMNSLRAEDTAVYYCARGPYDVWMDYWGQGTLVTVSS
VL: not shown
notes: ARG set
Take B2: the half-maximal effective concentration (EC50) in test [1] amounted to 1.2 nM.

B3: Ab60 (Fab, V domains shown)
VH: EVQLLESGGGLVQPGGSLRLSCAASGFTFSSYSMHWVRQAPGKGLEWVSSISSSAGYTSYADSVKGRFTISRDNSKNTLYLQMNSLRAEDTAVYYCARVPYDVWLDYWGQGTLVTVSS
VL: not shown
notes: ARV set
B3: the EC50 in test [1] turned out to be 79.8 nM.

B4: Ab193 (Fab, V domains shown)
VH: EVQLLESGGGLVQPGGSLRLSCAASGFTFSSYAMSWVRQAPGKGLEWVSAIKSDTSTIYYADSVKGRFTISRDNSKNTLYLQMNSLRAEDTAVYYCAREPYSTWLDYWGQGTLVTVSS
VL: not shown
notes: ARE set
In the case of B4, the EC50 in test [1] came out at 4.6 nM.

B5: Ab13 (Fab, V domains shown)
VH: B3 VH with S30D, S52N, S54N, A55G, T58K, S59Y, V103Y, L105I
VL: not shown
notes: ARV set
Take B5: the concentration giving a half-maximal response (EC50) stood at 43.1 nM in test [1] and 59.2 nM in test [2].

B6: Ab12 (Fab, V domains shown)
VH: B4 VH with S49A, A50S, K52N, D54N, T55G, S56G, T57Y, I58K, Y59S, S102G
VL: not shown
notes: ARE set
On to B6, for which the EC50 in test [1] worked out at 27.7 nM.

B7: Ab22 (Fab, V domains shown)
VH: B2 VH with D30S, G33S, N35H, Y53S, S55G, Y57S, G99V, V103Y
VL: not shown
notes: ARV set
Consider B7, for which the concentration for a half-maximal effect (EC50) worked out at 9.1 nM in test [1] and 5.1 nM in test [2].

B8: Ab15 (Fab, V domains shown)
VH: B3 VH with S49A, S52W, S54N, A55S, Y57N, S59G, V103Y, L105M
VL: not shown
notes: ARV set
B8: the EC50 in test [1] came out at 5 nM; in test [2] it was 8.4 nM.

B9: Ab6 (Fab, V domains shown)
VH: B3 VH with S31D, H35S, S49A, S50R, A55S, G56S, T58K, V99E, D102S
VL: not shown
notes: ARE set
For the molecule B9, the concentration for a half-maximal effect (EC50) in test [1] stood at 25.4 nM.

B10: Ab97 (Fab, V domains shown)
VH: B3 VH with S49A, S50A, S54N, A55T, Y57S, T58I, S59G, L105I
VL: not shown
notes: ARV set
As to B10, the EC50 in test [1] stood at 289 nM.

B11: Ab53 (Fab, V domains shown)
VH: B2 VH with D30S, G33S, N35H, Y53S, G56S, Y57N, M105L
VL: not shown
notes: ARG set; also called clone Ab53
For the molecule B11, in test [1], the EC50 amounted to 4.3 nM.

B12: Ab68 (Fab, V domains shown)
VH: B3 VH with S49A, S50A, S52K, S53G, S54N, A55T, Y57S, S59Y, D102G, L105M
VL: not shown
notes: ARV set
On to B12, for which the EC50 in test [1] turned out to be 639 nM.

B13: Ab10 (Fab, V domains shown)
VH: B2 VH with D30S, G33S, S50Y, Y53S, S54N, Y57T, Y59G, V103Y, M105L
VL: not shown
notes: ARG set
For B13, the results for the EC50 in test [1] and in test [2] were 101 nM and 40.7 nM, respectively.

B14: Ab38 (Fab, V domains shown)
VH: EVQLLESGGGLVQPGGSLRLSCAASGFTFSSYTMSWVRQAPGKGLEWVAGIWSDSGNKGYADSVKGRFTISRDNSKNTLYLQMNSLRAEDTAVYYCARVPYSVWIDYWGQGTLVTVSS
VL: not shown
notes: ARV set
Consider B14, for which, in test [1], the concentration for a half-maximal effect (EC50) amounted to 45.5 nM.

B15: Ab40 (Fab, V domains shown)
VH: B2 VH with D30S, S50G, Y57N
VL: not shown
notes: ARG set; also called clone Ab40
As for B15, in test [1], the EC50 was found to be 0.3 nM.

B16: Ab150 (Fab, V domains shown)
VH: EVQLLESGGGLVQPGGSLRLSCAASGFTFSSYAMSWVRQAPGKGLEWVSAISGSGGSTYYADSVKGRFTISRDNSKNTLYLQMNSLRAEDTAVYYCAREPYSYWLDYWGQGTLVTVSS
VL: DIQMTQSPSSLSASVGDRVTITCRASQSISSYVAWYQQKPGKAPKLLIYVNTSRASGVPSRFSGSGSGTDFTLTISSLQPEDFATYYCQQWYEFNLTFGGGTKVEIK
notes: ARE set
As to B16, the EC50 in test [2] was found to be 0.7 nM.

B17: Ab158 (Fab, V domains shown)
VH: B4 VH with A33S, S49A, S53G, D54S, T55A, S56G, I58S, Y59G, S102G, T103Y
VL: B16 VL with V50G, R54L, A55Q, W91G, Y92D, F94N, N95P
notes: ARE set
Turning to B17, the EC50 in test [2] turned out to be 156 nM.

B18: Ab78 (Fab, V domains shown)
VH: B3 VH with S49A, S53G, A55T, G56S, Y57S, T58S, L105M
VL: not shown
notes: ARV set
As to B18, the EC50 in test [1] turned out to be 119 nM.

B19: Ab156 (Fab, V domains shown)
VH: B3 VH with S33A, H35S, S50Y, S53G, S54N, T58I, D102G, L105M
VL: B16 VL with V33A, V50G, A55Q, W91Y, Y92S, E93N, F94S, N95P
notes: ARV set
With B19, in test [2], the EC50 turned out to be 164 nM.

B20: Ab152 (Fab, V domains shown)
VH: B3 VH with S49T, S54N, T58I, L105M
VL: not shown
notes: ARV set
As for B20, the concentration for a half-maximal effect (EC50) in test [1] was 27.1 nM.

B21: Ab128 (Fab, V domains shown)
VH: B3 VH with H35N, S49A, S52K, S53G, G56S, V103Y, L105I
VL: not shown
notes: ARV set
Turning to B21, the EC50 in test [2] is 265 nM.

B22: Ab162 (Fab, V domains shown)
VH: B4 VH with S49A, D54S, T55A, T103V, L105M
VL: not shown
notes: ARE set
Turning to B22, in test [2], the EC50 turned out to be 20.4 nM.

B23: Ab168 (Fab, V domains shown)
VH: B4 VH with A50S, T57S, I58T, T103Y
VL: not shown
notes: ARE set
Take B23: the concentration for a half-maximal effect (EC50) in test [2] stood at 253 nM.

B24: Ab183 (Fab, V domains shown)
VH: B4 VH with A50Y, K52N, D54N, S56G, T57S, Y59G, S102G, T103V, L105M
VL: not shown
notes: ARE set
As to B24, the EC50 in test [2] turned out to be 110 nM.

B25: Ab186 (Fab, V domains shown)
VH: B3 VH with S49A, S54N, T58S, L105I
VL: not shown
notes: ARV set
On to B25, for which, in test [2], the EC50 came to 429 nM.

B26: Ab188 (Fab, V domains shown)
VH: B3 VH with S49A, S52K, S54N, Y57T, T58S, L105I
VL: not shown
notes: ARV set
Take B26: the concentration giving a half-maximal response (EC50) in test [2] came to 40.3 nM.

B27: Ab194 (Fab, V domains shown)
VH: EVQLLESGGGLVQPGGSLRLSCAASGFTFSSYSMSWVRQAPGKGLEWVSAINGNAGSIGYADSVKGRFTISRDNSKNTLYLQMNSLRAEDTAVYYCAREPYGVWMDYWGQGTLVTVSS
VL: not shown
notes: ARE set
Regarding B27, the EC50 in test [2] stood at 70.6 nM.

B28: Ab173 (Fab, V domains shown)
VH: B4 VH with A50S, K52S, D54N, S56G, Y59S, E99V, S102G, T103Y, L105M
VL: not shown
notes: ARV set
Consider B28, for which, in test [2], the 50% effective concentration (EC50) was determined as 64.9 nM.

B29: Ab170 (Fab, V domains shown)
VH: B3 VH with S30N, S33A, S49A, S50Y, S53G, S54N, Y57S, T58I, S59Y, D102S
VL: not shown
notes: ARV set
In the case of B29, the EC50 in test [1] turned out to be 138 nM.

B30: Ab93 (Fab, V domains shown)
VH: B3 VH with S33A, H35S, S49A, A55T, Y57T, T58I, D102S, L105M
VL: not shown
notes: ARV set
On to B30, for which the concentration for a half-maximal effect (EC50) in test [1] turned out to be 122 nM.

B31: Ab187 (Fab, V domains shown)
VH: B4 VH with A33S, S49A, A50S, T55A, I58T, Y59G, T103V
VL: not shown
notes: ARE set
For B31, the EC50 in test [1] stood at 6.2 nM.

B32: Ab137 (Fab, V domains shown)
VH: B3 VH with S49A, S52K, S53G, S54N, A55T, Y57S, T58I, V103Y, L105I
VL: not shown
notes: ARV set
As to B32, the EC50 in test [2] came out at 84.9 nM.

B33: Ab146 (Fab, V domains shown)
VH: B3 VH with S33A, S49A, S53G, S54N, Y57S, T58S, D102G, L105I
VL: not shown
notes: ARV set
Take B33: the EC50 in test [2] was 7.8 nM.

B34: Ab199 (Fab, V domains shown)
VH: B3 VH with S49A, G56S, Y57T, T58S, S59G, D102G, L105I
VL: not shown
notes: ARV set
As for B34, in test [2], the EC50 stood at 81 nM.

B35: Ab119 (Fab, V domains shown)
VH: B3 VH with H35S, S49A, S52K, A55T, Y57T, T58I, V103Y, L105M
VL: not shown
notes: ARV set
Consider B35, for which, in test [2], the EC50 amounted to 279 nM.

B36: Ab117 (Fab, V domains shown)
VH: B4 VH with S49A, D54S, T55A, T103V, L105M
VL: not shown
notes: ARE set; also called clone Ab117
Regarding B36, the EC50 in test [2] was 10.7 nM.

B37: Ab123 (Fab, V domains shown)
VH: B3 VH with H35S, S49A, Y57T, T58S, V99E, D102G
VL: not shown
notes: ARE set
With B37, the EC50 in test [2] came out at 578 nM.

B38: Ab140 (Fab, V domains shown)
VH: B4 VH with S49A, A50S, K52N, D54N, S56G, T57S, Y59G, T103Y
VL: not shown
notes: ARE set
For the molecule B38, in test [2], the EC50 amounted to 173 nM.

B39: Ab138 (Fab, V domains shown)
VH: B4 VH with S49A, A50S, D54S, S56G, I58T, Y59G, T103V, L105I
VL: not shown
notes: ARE set
As for B39, the EC50 in test [2] was 58.6 nM.

B40: Ab154 (Fab, V domains shown)
VH: B3 VH with S49A, S52K, S54N, A55T, Y57T, S59G, D102G, V103Y, L105M
VL: not shown
notes: ARV set
Take B40: the concentration giving a half-maximal response (EC50) in test [2] turned out to be 122 nM.
